According to publication PMC3233575:

What was measured:
[1] = target: HIV-1 BX08 gp140 (soluble, trimeric ectodomain of the envelope glycoprotein, residues 31-663) (HIV-1 strain 92FR_BX08 (clade B, R5)); assay: SPR; gp140 immobilised by direct amine coupling on CM5 (560 RU BX08, 620 RU IIIB); fluid phase DC-SIGN 50-600 nM or Langerin 25-200 nM; HBS-P pH 7.4 with 10 mM CaCl2; heterogeneous analyte model (KD2 oligomer, KD1 monomer)
[2] = target: HIV-1 IIIB gp140 (soluble, trimeric ectodomain of the envelope glycoprotein, residues 31-665) (HIV-1 strain IIIB (clade B, X4), molecular clone pBH10) (UniProt P03375); assay: as above
[3] = target: HIV-1 BX08 gp140 (soluble, trimeric ectodomain of the envelope glycoprotein, residues 31-663) (HIV-1 strain 92FR_BX08 (clade B, R5))
[4] = target: HIV-1 IIIB virus particles (envelope glycoprotein on virions) (HIV-1 strain IIIB (clade B)) (UniProt P03375)
[5] = target: CHO-expressed soluble CD4 (UniProt P01730)
[6] = target: soluble recombinant DC-SIGN, entire extracellular domain (residues 70-404) (UniProt Q9NNX6); assay: acoustic biosensor (RapID4); soluble DC-SIGN amine-coupled, BSA on the control cell; purified or unpurified inactivated virus 34-250 nM (by p24, 2500 gag per virion); Langmuir kinetic model
Chain of soluble recombinant DC-SIGN, entire extracellular domain (residues 70-404) (UniProt Q9NNX6) (Q9NNX6 70-404): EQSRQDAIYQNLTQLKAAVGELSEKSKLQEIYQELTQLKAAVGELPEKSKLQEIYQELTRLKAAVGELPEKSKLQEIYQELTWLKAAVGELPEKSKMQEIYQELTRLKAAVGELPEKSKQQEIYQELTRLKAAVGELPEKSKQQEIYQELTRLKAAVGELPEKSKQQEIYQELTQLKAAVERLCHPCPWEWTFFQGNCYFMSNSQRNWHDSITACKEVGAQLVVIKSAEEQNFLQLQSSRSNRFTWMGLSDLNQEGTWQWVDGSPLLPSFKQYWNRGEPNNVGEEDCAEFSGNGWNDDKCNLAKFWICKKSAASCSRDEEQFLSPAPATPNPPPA

Chain of soluble recombinant DC-SIGN, entire extracellular domain (residues 70-404) (from UniProt Q9NNX6-1 70-404) (domain or fragment) (Q9NNX6 70-404): as above
Chain of soluble recombinant Langerin, full extracellular domain (residues 56-328) (Q9UJ71 56-328): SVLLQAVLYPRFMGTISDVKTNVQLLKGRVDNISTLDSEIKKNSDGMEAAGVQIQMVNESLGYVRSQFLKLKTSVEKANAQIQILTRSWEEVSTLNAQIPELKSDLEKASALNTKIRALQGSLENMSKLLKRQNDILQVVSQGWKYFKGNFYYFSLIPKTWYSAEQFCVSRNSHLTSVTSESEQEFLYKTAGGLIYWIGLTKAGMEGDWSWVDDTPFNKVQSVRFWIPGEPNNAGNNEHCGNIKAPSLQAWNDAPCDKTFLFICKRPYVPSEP

soluble recombinant DC-SIGN, entire extracellular domain (residues 70-404) (from UniProt Q9NNX6-1 70-404) (domain or fragment)
KD2 (tetrameric form, heterogeneous analyte model) [1]: 0.062 µM | KD2 (tetrameric form, heterogeneous analyte model) [2]: 0.063 µM | IC50 of soluble DC-SIGN for inhibition of HIV-1 BX08 replication in PM1 cells (p24 release, 10 days); pair said to be blocked: envelope protein with CD4 [3]: 2.5 nM | IC50 of soluble DC-SIGN for inhibition of HIV-1 IIIB replication in PM1 cells (p24 release, 10 days); pair said to be blocked: envelope protein with CD4 [4]: 4 nM

HIV-1 IIIB virus particles (envelope glycoprotein on virions) (from UniProt P03375 33-511; P03375 512-856) (complex)
maximum enhancement of p24 release from PM1 cells infected with HIV-1 IIIB pre-incubated with soluble DC-SIGN at <1 nM, against no treatment [5]: 15.3 fold | Kd [6]: 96 nM

soluble recombinant Langerin, full extracellular domain (residues 56-328) (from UniProt Q9UJ71 56-328) (domain or fragment)
KD2 (trimeric form, heterogeneous analyte model) [1]: 0.024 µM | KD2 (trimeric form, heterogeneous analyte model) [2]: 0.011 µM

HIV-1 IIIBx virus particles (envelope glycoprotein on virions), CD4-independent variant of IIIB (from UniProt P03375 33-511; P03375 512-856) (complex)
Kd [6]: 20 nM

HIV-1 BX08 gp140 (soluble, trimeric ectodomain of the envelope glycoprotein, residues 31-663) (domain or fragment)
maximum enhancement of p24 release from PM1 cells infected with HIV-1 BX08 pre-incubated with soluble DC-SIGN at <1 nM, against no treatment [5]: 3.6 fold
